Assay results taken from paper PMC3902904, “Intrinsically disordered regions of nucleophosmin/B23 regulate its RNA binding activity through their inter- and intra-molecular association” (Nucleic Acids Research, 2013).
Values belong to the molecule of their own block, whether it stands above or below them.

How the values were obtained:
[1] = tested on: GST-B23.1-CR (human); assay: GST pull-down; conditions: total RNA, 300 mM NaCl wash; Sucrose gradient 15-40%, 5 µg protein with 10 µg 293T total RNA (buffer not given in the material); GST pull-down 2 µg protein, 5 µg total RNA, wash 300 mM …
[2] = tested on: GST-B23.1-CRD (human); assay: GST pull-down; conditions: total RNA, 300 mM NaCl wash; Sucrose gradient 15-40%, 5 µg protein with 10 µg 293T total RNA (buffer not given in the material); GST pull-down 2 µg protein, 5 µg total RNA, wash 300 mM …
[3] = biological target: His-B23.1-ΔN (human) (UniProt P06748); assay: cross-linking; 0.1% glutaraldehyde, 10 min, room temperature, 20 mM Hepes-NaOH pH 7.9, 50 mM NaCl; SDS-PAGE, CBB staining; increased protein concentration (3.0 and 4.5 µM; lanes 5 and 6 at 4.5 µM)
[4] = biological target: T1, GST-B23.1-CRA (human, UniProt P06748 189-294, threonine 199 replaced with alanine (A) | threonine 219 replaced with alanine …); assay: native gel or EMSA; GST-B23.1-A (0.5 µg) mixed with increasing amounts (0.5, 1.0, 2.0, 4.0 µg) of the other GST-tagged fragment in 10 µl buffer H, 30 min, room temperature; 6% native PAGE in 0.5x TBE, CBB staining; conditions: both partners purified
T1 construct: nucleophosmin NPM1/B23, variant B23.1, human, B23.1-CR with threonines 199, 219, 234 and 237 replaced with alanine; source: E. coli BL21 (DE3), purified (Glutathione sepharose, MNase-treated)

[5] = biological target: T2, GST-B23.1-CRD (human, UniProt P06748 189-294, threonine 199 replaced with aspartic acid (D) | threonine 219 replaced with …); assay: as above; conditions: both partners purified
T2 construct: nucleophosmin NPM1/B23, variant B23.1, human, B23.1-CR with threonines 199, 219, 234 and 237 replaced with aspartic acid; also called phosphomimetic mutant; source: E. coli BL21 (DE3), purified (Glutathione sepharose, MNase-treated)

[6] = biological target: T3, GST-B23.1-CR (human, UniProt P06748 189-294); assay: as above; conditions: both partners purified
T3 construct: nucleophosmin NPM1/B23, variant B23.1, human, basic IDR and CTD; amplified with the same forward primer as CR1 (which begins at 189, KAPVKK) and the T7 terminator primer; also called unphosphorylated GST-B23.1-CR; source: E. coli BL21 (DE3), purified (Glutathione sepharose, MNase-treated)

[7] = biological target: T4, GST-B23.1-CR1 (human, UniProt P06748 189-259); assay: as above; conditions: both partners purified
T4 construct: nucleophosmin NPM1/B23, variant B23.1, human, amino acids 189-259 (basic IDR); limits are printed for B23.1-CR1 in the CD experiment; also called bIDR; basic IDR; source: E. coli BL21 (DE3), purified (Glutathione sepharose, MNase-treated)
T4 sequence (P06748 189-259): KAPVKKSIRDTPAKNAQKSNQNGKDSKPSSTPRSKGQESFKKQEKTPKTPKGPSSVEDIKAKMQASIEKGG

T3 sequence (P06748 189-294): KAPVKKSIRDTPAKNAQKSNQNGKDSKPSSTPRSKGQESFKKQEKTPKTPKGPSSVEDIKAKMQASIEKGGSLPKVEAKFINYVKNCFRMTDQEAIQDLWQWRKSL
T2 sequence (P06748 other isoform, or with tags, fused parts or gaps with the stated changes): as the sequence (P06748 189-294) above, with T11D, T31D, T46D, T49D counted along it
T1 sequence (P06748 other isoform, or with tags, fused parts or gaps with the stated changes): as the sequence (P06748 189-294) above, with T11A, T31A, T46A, T49A counted along it

Molecule: 18S rRNA
binding signal (% (reference)) [1]: 100
binding signal (% of GST-B23.1-CR) [2]: 25

Molecule: 28S rRNA
binding signal (% (reference)) [1]: 100
binding signal (% of GST-B23.1-CR) [2]: 35

Results, then the molecule that gave them:

stoichiometry N [3]: 2
Molecule: His-B23.1-ΔN (from UniProt P06748 120-294) (domain or fragment)

binding result [4]: binds
binding result [5]: binds
binding result [6]: binds
binding result [7]: binds
B1: GST-B23.1-A (domain or fragment, human, UniProt P06748 120-188, looked up)
chain: EEDAESEDEEEEDVKLLSISGKRSAPGGGSKVPQKKVKLAADEDDDDDDEEDDDEDDDDDDFDDEEAEE
notes: nucleophosmin NPM1/B23, variant B23.1 (longest variant), human, amino acids 120-188 (acidic IDR); The construction of pGEX2T-B23.1-A is not described in the methods; also called GST-tagged B23-A; aIDR; source: E. coli BL21 (DE3), purified (Glutathione sepharose, MNase-treated)
